Laboratory results taken from patent publication US20080058263A1 (published 2008).
Changes are numbered by the printed parent chain.

T1: VEGFR-3-Fc (UniProt P35916 25-328)
T1 construct: domain: first three Ig domains; conditioned supernatant of 293T cells; also called VEGFR-3-Fc fusion protein; not shown: Fc fragment of the pIg vector
T1 sequence (looked up): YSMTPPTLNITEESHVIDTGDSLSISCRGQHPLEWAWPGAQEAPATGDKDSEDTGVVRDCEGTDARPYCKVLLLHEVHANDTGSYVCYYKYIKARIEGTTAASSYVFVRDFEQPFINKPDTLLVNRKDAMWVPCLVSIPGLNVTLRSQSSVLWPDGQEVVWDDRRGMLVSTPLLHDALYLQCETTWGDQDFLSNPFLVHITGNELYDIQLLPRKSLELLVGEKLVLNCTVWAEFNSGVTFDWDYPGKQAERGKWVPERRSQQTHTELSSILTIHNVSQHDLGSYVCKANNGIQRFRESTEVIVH

B1: 13-14 (ligand)
chain: GQNHHEVVKFMDVYQRSYCHPIETLVDIFQEYPDEIEYIFKPPCVSVYRCGGCCNDEGLECMNTSTSYLSKTLFEITVPLSQGPKPVTISFANHTSCRCMSKLD
B2: 13-4 (ligand)
chain: GQNHHEVVKFMDVYQRSYCHPIETLVDIFQEYPDEIEYIFKPPCVSVYRCGGCCNSEGLQCMNTSTSYLSKTLFEIKPHQGQHIGEMSFLQHNKCECRPKKD
B3: 14-13 (ligand)
chain: GQNHHEVVKFMDVYQRSYCHPIETLVDIFQEFGVATNTFFKPSCVPLMRCGGCCNDEGLECVPTEESNITMQIMRITVPLSQGPKPVTISFANHTSCRCMSKLD
B4: 14-15 (ligand)
chain: B3 chain with D56S, E60Q
B5: 23-1 (ligand)
chain: AHYNTEILKSIDNEWRKTQCMPREVCIDVGKEYPDEIEYIFKPPCVSVYRCGGCCNDEGLECVPTEESNITMQIMRIKPHQGQHIGEMSFLQHNKCECRPKKD
B6: 23-3 (ligand)
chain: B5 chain with D57S, E61Q
B7: 23-7 (ligand)
chain: B5 chain with D57S, E61Q, L91A, Q92N, N94T, K95S, E97R, R99M, P100S, K102L
B8: 31-6 (ligand)
chain: GQNHHEVVKSIDNEWRKTQCMPIETLVDIFQEYPDEIEYIFKPSCVPLMRCGGCCNDEGLECMNTSTSYLSKTLFEIKPHQGQHIGEMSFANHTSCRCMSKLD
B9: 72-3 (ligand)
chain: GQNHHEVVKSIDNEWRKTQCMPREVCIDVGKEFGVATNTFFKPPCVSVYRCGGCCNSEGLQCVPTEESNITMQIMRIKPHQGQHIGEMSFLQHNKCECRPKKD
B10: 72-7 (ligand)
chain: GQNHHEVVKSIDNEWRKTQCMPREVCIDVGKEFGVATNTFFKPPCVSVYRCGGCCNSEGLQCVPTEESNITMQIMRIKPHQGQHIGEMSFANHTSCRCMSKL
B11: 24-5 (ligand)
chain: AHYNTEILKSIDNEWRKTQCMPREVCIDVGKEFGVATNTFFKPSCVPLMRCGGCCNDEGLECVPTEESNITMQIMRIKPHQGQHIGEMSFANHTSCRCMSKLD
B12: 24-7 (ligand)
chain: B11 chain with D57S, E61Q
B13: 22-5 (ligand)
chain: B11 chain with S44P, P47S, L48V, M49Y
B14: 24-1 (ligand)
chain: B11 chain with A91L, N92Q, T94N, S95K, R97E, M99R, S100P, L102K
B15: 23-5 (ligand)
chain: B5 chain with L91A, Q92N, N94T, K95S, E97R, R99M, P100S, K102L
B16: 22-7 (ligand)
chain: B11 chain with S44P, P47S, L48V, M49Y, D57S, E61Q
B17: 54-5 (ligand)
chain: B11 chain with R23I, V25T, C26L, I27V, V29I, G30F, K31Q
B18: 74-5 (ligand)
chain: B11 chain with A1G, H2Q, Y3N, N4H, T5H, I7V, L8V
B19: 72-5 (ligand)
chain: B9 chain with S57D, Q61E, L91A, Q92N, N94T, K95S, E97R, R99M, P100S, K102L
B20: 21-7 (ligand)
chain: B11 chain with F33Y, G34P, V35D, A36E, T37I, N38E, T39Y, F40I, D57S, E61Q
B21: 24-3 (ligand)
chain: B11 chain with D57S, E61Q, A91L, N92Q, T94N, S95K, R97E, M99R, S100P, L102K
B22: 21-5 (ligand)
chain: B11 chain with F33Y, G34P, V35D, A36E, T37I, N38E, T39Y, F40I
B23: 52-5 (ligand)
chain: AHYNTEILKSIDNEWRKTQCMPIETLVDIFQEFGVATNTFFKPPCVSVYRCGGCCNDEGLECVPTEESNITMQIMRIKPHQGQHIGEMSFANHTSCRCMSKLD
B24: 74-7 (ligand)
chain: B11 chain with A1G, H2Q, Y3N, N4H, T5H, I7V, L8V, D57S, E61Q
B25: 54-7 (ligand)
chain: B23 chain with P44S, S47P, V48L, Y49M, D57S, E61Q
B26: 31-4 (ligand)
chain: GQNHHEVVKSIDNEWRKTQCMPIETLVDIFQEYPDEIEYIFKPSCVPLMRCGGCCNDEGLECVPTEESNITMQIMRITVPLSQGPKPVTISFANHTSCRCMSKLD

The binders below were run against T2, VEGFR-1-Fc (UniProt P17948 27-338) (assay: receptor-Fc IP).
T2 construct: domain: first three Ig domains; expressed in Drosophila S2 cells, purified on Protein A sepharose; also called VEGFR-1-Fc fusion protein; not shown: Fc fragment from the Signal-pIgPlus vector
Summary of the method: (§1)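 Binding of ligand from sample supernatant measured by pentahistidine-antibody immunoprecipitation. IP mix: PBS with 1.5% BSA, 0.06% Tween 20, 3 μg/ml heparin and 400 ng/ml fusion protein, added 1:2 to sample supernatant.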

T2 sequence (P17948 27-338): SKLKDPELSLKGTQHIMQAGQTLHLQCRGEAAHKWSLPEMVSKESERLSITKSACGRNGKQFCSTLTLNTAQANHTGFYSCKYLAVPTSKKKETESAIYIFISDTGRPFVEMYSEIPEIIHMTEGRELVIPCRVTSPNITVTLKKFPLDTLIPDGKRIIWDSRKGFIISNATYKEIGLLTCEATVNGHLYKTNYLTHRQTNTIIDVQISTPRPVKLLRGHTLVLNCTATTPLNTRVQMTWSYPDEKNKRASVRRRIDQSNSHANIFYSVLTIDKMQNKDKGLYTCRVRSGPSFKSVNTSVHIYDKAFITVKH

Binding result, no binding:
B1
B2
B3
B4
B5
B6
B7
B8
B9
B10
B11
B12
B13
B14
B15
B16
B17
B18
B19
B20
B21
B22
B23
B24
B25
B26

What follows are binders tested against T3, VEGFR-2-Fc (UniProt P35968 20-322) (assay: receptor-Fc IP).
T3 construct: domain: first 3 Ig domains; conditioned supernatant of 293T cells; also called VEGFR-2-Fc fusion protein; not shown: Fc fragment of the pIg vector
Summary of the method: as §1

T3 sequence (P35968 20-322): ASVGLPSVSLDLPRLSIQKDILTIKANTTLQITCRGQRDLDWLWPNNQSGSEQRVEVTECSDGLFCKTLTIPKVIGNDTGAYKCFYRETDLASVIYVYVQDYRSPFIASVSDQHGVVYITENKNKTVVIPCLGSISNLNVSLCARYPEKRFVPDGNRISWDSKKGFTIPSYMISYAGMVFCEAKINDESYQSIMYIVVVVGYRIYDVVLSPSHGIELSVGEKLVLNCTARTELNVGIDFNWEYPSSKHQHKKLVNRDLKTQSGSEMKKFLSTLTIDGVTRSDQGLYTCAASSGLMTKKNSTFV

Binding result, no binding:
B1
B2
B3
B4
B5
B6
B7
B8
B9
B10
B11
B12
B13
B14
B15
B16
B17
B18
B19
B20
B21
B22
B23
B24
B25
B26

These binders were tested against T1, VEGFR-3-Fc (assay: receptor-Fc IP).
Summary of the method: as §1

Binding result, no binding:
B1
B2
B3
B4
B5
B6
B7
B8
B9
B10
B11
B12
B13
B14
B15
B16
B17
B18
B19
B20
B21
B22
B23
B24
B25
B26
